How the values were obtained:
[1] = molecular target: 57CrGPDH705-FLAG, di-domain glycerol-3-phosphate dehydrogenase from Chlamydomonas reinhardtii with 30 additional N-terminal amino acids (Chlamydomonas reinhardtii); test: SEC
[2] = molecular target: 87CrGPDH705-FLAG, di-domain glycerol-3-phosphate dehydrogenase from Chlamydomonas reinhardtii with the chloroplast targeting sequence removed (Chlamydomonas reinhardtii); test: SEC

| Substance | stoichiometry N [1] | stoichiometry N [2] |
| --- | --- | --- |
| 57CrGPDH705-FLAG, di-domain glycerol-3-phosphate dehydrogenase from Chlamydomonas reinhardtii with 30 additional N-terminal amino acids (enzyme) | 5 | – |
| 87CrGPDH705-FLAG, di-domain glycerol-3-phosphate dehydrogenase from Chlamydomonas reinhardtii with the chloroplast targeting sequence removed (enzyme) | – | 4 |
